Results from PMC4466140, “Evolution of the SH3 Domain Specificity Landscape in Yeasts” (PLoS ONE, 2015).

Tests used:
Experiment in all cases: peptide or protein array; SPOT: 15-mer peptides on cellulose (CAPE) membrane; GST-SH3 domains at 10 μg/ml overnight at 4°C in blocking buffer (TBS, 50 mM Tris/HCl pH 7.6, 150 mM NaCl, Blocking Buffer, 0.15 M sucrose); detected with anti-GST antibody and HRP conjugate
Settings in all cases: both partners purified
[1] = target: T1, GST-tagged C. albicans Rvs167 SH3 domain (C. albicans, UniProt Q59LF3 382-440)
T1 construct: Rvs167 of Candida albicans, SH3 domain; also called CaRvs167; source: E. coli BL21(DE3), purified (glutathione Sepharose 4B); not shown: GST, N-terminal, kept
T1 sequence: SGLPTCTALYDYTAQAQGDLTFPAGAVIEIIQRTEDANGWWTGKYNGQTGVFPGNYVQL

[2] = target: T2, GST-tagged S. pombe Rvs167 (Hob1) SH3 domain (S. pombe, UniProt O74352 407-466)
T2 construct: Rvs167 homolog of S. pombe, called Hob1, SH3 domain; also called SpRvs167; source: E. coli BL21(DE3), purified (glutathione Sepharose 4B); not shown: GST, N-terminal, kept
T2 sequence (looked up): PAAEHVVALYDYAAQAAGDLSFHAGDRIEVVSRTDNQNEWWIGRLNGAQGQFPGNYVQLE

[3] = target: T3, GST-tagged S. cerevisiae Rvs167 SH3 domain (S. cerevisiae, UniProt P39743 421-482)
T3 construct: Rvs167, S. cerevisiae, SH3 domain; also called ScRvs167; source: E. coli BL21(DE3), purified (glutathione Sepharose 4B); not shown: GST, N-terminal, kept

Measured: binding result

T3 sequence (P39743 421-482): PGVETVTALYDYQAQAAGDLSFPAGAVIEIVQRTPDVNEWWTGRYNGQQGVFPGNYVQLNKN

B1: Type II peptide #66 (SPOT membrane) (peptide)
peptide: SSSSTPPTLPPRRIE
notes: 15-mer of the SH3-SPOT library mined from the S. cerevisiae proteome; In the SPOT library all cysteines were replaced by serines; source: synthetic peptide, SPOT synthesis on cellulose (CAPE) membrane
binds: [1] | [2] | [3]
